These results are taken from US20090181894A1.

The target in this test is GnRH binding sites on neoplastic cells (plasma membranes of the SW-48 colon adenocarcinoma cell line in the binding assay). Briefly: binding of 125I-GnRH to plasma membranes of SW-48 cells, filter assay.

On to “125I-GnRH (from UniProt P01148) (peptide)”, for which the non-specific binding was determined as 37%.
